We go through 2 substances from US7122190.

In experiment [1] the target is viral gp41 (HIV-1IIIB transmembrane protein on infected cells and virions) (HIV-1IIIB) (UniProt P04578). Briefly: cell-based or functional assay.
Experiment [2] deals with viral gp41 of HIV-1 (on virions and HIV-1 infected cells) (HIV-1) (UniProt P03377). Briefly: cell-based or functional assay.

Regarding “M41 (maltose binding protein fused to the extracellular domain of HIV-1 gp41, residues 540-686) (from UniProt P03377 540-686)”, in experiment [1], the Cell fusion (IC90) was > 50 µM and the HIV infectivity (IC90) was > 16 µM.
In experiment [2], “M41-P, M41 with an Ile to Pro mutation at position 578 (from UniProt P03377 540-686)” displayed a 90% block of syncytia formation (HIV-1IIIB cell fusion assay) of 85 nM and a 90% neutralisation of HIV-1IIIB infection of 70 nM.
